Experimental data taken from patent publication US20030235860A1, “Interactions between AR, ER, TR2, and TR4” (priority 1999, published 2003).

T1: AR (Homo sapiens, UniProt P10275, DEL79-80/DUP473-473)
T1 sequence (P10275 with tags, fused parts or gaps DEL79-80/DUP473-473): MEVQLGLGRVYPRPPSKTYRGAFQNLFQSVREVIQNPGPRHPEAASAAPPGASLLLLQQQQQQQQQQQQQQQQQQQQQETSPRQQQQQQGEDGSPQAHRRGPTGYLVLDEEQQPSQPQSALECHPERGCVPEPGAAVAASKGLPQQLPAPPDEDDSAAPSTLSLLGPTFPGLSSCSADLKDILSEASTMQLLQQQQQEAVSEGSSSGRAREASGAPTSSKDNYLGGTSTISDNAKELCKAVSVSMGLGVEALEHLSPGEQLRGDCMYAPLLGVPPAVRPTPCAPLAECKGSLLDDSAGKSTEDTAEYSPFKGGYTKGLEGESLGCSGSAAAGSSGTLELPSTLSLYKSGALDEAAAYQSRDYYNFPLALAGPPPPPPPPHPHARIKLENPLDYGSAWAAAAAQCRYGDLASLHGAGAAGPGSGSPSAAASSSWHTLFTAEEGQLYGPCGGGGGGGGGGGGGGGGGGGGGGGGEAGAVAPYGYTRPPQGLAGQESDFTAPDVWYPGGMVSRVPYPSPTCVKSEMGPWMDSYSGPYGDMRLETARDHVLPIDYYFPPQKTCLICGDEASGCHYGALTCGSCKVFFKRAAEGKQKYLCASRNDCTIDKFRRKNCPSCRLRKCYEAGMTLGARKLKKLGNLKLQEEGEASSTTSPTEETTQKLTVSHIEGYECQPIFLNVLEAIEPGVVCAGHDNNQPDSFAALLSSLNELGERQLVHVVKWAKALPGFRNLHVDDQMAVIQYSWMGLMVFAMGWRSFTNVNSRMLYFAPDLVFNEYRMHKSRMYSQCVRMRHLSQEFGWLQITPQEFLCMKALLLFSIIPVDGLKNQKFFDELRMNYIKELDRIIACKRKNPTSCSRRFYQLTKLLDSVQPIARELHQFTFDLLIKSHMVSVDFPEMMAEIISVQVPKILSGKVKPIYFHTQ

B1: TR4: human testicular orphan nuclear receptor 4, SEQ ID NO:16; expressed from plasmid or in vitro translated (protein)
chain: MTSPSPRIQIISTDSAVASPQRIQGSEPASGPLSVFTSLNKEKIVTDQQTGQKIQIVTAVDASGSPKQQFILTSPDGAGTGKVILASPETSSAKQLIFTTSDNLVPGRIQIVTDSASVERLLGKTDVQRPQVVEYCVVCGDKASGRHYGAVSCEGCKGFFKRSVRKNLTYSCRSSQDCIINKHHRNRCQFCRLKKCLEMGMKMESVQSERKPFDVQREKPSNCAASTEKIYIRKDLRSPLIATPTFVADKDGARQTGLLDPGMLVNIQQPLIREDGTVLLATDSKAETSQGALGTLANVVTSLANLSESLNNGDTSEIQPEDQSASEITRAFDTLAKALNTTDSSSSPSLADGIDTSGGGSIHVISRDQSTPIIEVEGPLLSDTHVTFKLTMPSPMPEYLNVHYICESASRLLFLSMHRARSIPAFQGLGQDCNTSLVRACWNELFTLGLAQCAQVMSLSTILAAIVNHLQNSIQEDKLSGDRIKQVMEHIWKLQEFCNSMANWDIDGYEYAYLKAIVLFSPDHPGLTSTSQIEKFQEKAQMELQDYVQKTYSEDTYRLARILVRLPALRLMSSNITEELFFTGLIGNVSIDSIIPYILKMETAEYNGQITGVSL
B2: TR2: human testicular orphan nuclear receptor 2, 603 amino acids (protein, UniProt P13056 1-603, looked up)
chain: MATIEEIAHQIIEQQMGEIVTEQQTGQKIQIVTALDHNTQGKQFILTNHDGSTPSKVILARQDSTPGKVFLTTPDAAGVNQLFFTTPDLSAQHLQLLTDNSPDQGPNKVFDLCVVCGDKASGRHYGAVTCEGCKGFFKRSIRKNLVYSCRGSKDCIINKHHRNRCQYCRLQRCIAFGMKQDSVQCERKPIEVSREKSSNCAASTEKIYIRKDLRSPLTATPTFVTDSESTRSTGLLDSGMFMNIHPSGVKTESAVLMTSDKAESCQGDLSTLANVVTSLANLGKTKDLSQNSNEMSMIESLSNDDTSLCEFQEMQTNGDVSRAFDTLAKALNPGESTACQSSVAGMEGSVHLITGDSSINYTEKEGPLLSDSHVAFRLTMPSPMPEYLNVHYIGESASRLLFLSMHWALSIPSFQALGQENSISLVKAYWNELFTLGLAQCWQVMNVATILATFVNCLHNSLQQDKMSTERRKLLMEHIFKLQEFCNSMVKLCIDGYEYAYLKAIVLFSPDHPSLENMEQIEKFQEKAYVEFQDYITKTYPDDTYRLSRLLLRLPALRLMNATITEELFFKGLIGNIRIDSVIPHILKMEPADYNSQIIGHSI
modifications: full-length
notes: human testicular orphan nuclear receptor 2, 603 amino acids

What was measured:
AR = target: T1, AR; test: Immunocytofluorescence of AR localization in DU145 cells; assay type: cell-based; parameters: expressed in transfected cells; host or cells: DU145 cells; settings: absence of DHT
Experimental: DU145 cells were seeded on two-well Lab Tek Chamber slides (Nalge Nunc International) 18 h before transfection. One to two μg of DNA per 10^5 cells was transfected by the FuGENETM 6 transfection reagent (Boehringer-Mannheim). […] Immunostaining was performed by incubating with anti-AR polyclonal antibody (NH27), anti-TR4 monoclonal antibody (#15), and anti-ERa monoclonal antibody (C-314, Santa Cruz), followed by incubation with either fluorescein-conjugated goat anti-rabbit or anti-mouse antibodies (ICN Pharmaceuticals, Inc.). […] The slides were photographed under 100-fold magnification using confocal microscopy.
An immunocytofluorescence assay was then applied to determine the subcellular localization of the AR and TR4 in DU145 cells. DU145 cells were seeded on two-well Lab Tek Chamber slides (Nalge Nunc International) 18 hours before transfection. One to two μg of DNA per 105 cells was transfected either with AR (unliganded or liganded), TR4, or ER alone or in combination with the FuGENETM6 transfection reagent (Boehringer-Mannheim). […] Immunostaining was performed by incubation with the anti-AR polyclonal antibody, anti-TR4 monoclonal antibody, or anti-ERa monoclonal antibody, followed by incubation with either fluorescein-conjugated goat anti-rabbit or anti-mouse antibodies (ICN Pharmaceuticals, Inc.).

PR = test: Endogenous PR expression in T47D cells (Northern / Western); assay type: cell-based, human
Experimental: The method was used as previously described, Lee & Chang. (1996) J. Biol. Chem. 271. 10405-10412, with some modifications. Briefly. 5 μg of pCMV-TR2 was transiently transfected into T47D cells and lysed in RIPA buffer (10 mM sodium phosphate, pH 7.0. 150 mM NaCL, 2 mM EDT A. 1% (w/v) Nonidet P-40, 0.1% (w/v) SDS. 1% (w/v) sodium deoxycholate) with freshly adding proteinase inhibitors. The soluble protein was quantified using the Bio-Rad Protein Assay reagent (Bio-Rad Laboratories) and 50 μg soluble proteins were loaded onto SDS/10% PAGE and then transferred to Immobion-P transfer membrane (Millipore). After the blocking reaction overnight, the membrane was incubated with […] anti-PR polyclonal antibody (H-190. Santa Cruz) in PBS(−) containing 0.1% Skim milk for 2 h at room temperature. The membrane was washed and then incubated in 15 μCi 125I] of protein-A (DuPont NEN)/30 ml of PBS(−) containing 0.1% Skim milk for 1 h at room temperature. The western blots were autoradiographed and quantitated by using Phosphorlmager.
RNA isolation and Northern blot analysis were performed as previously described. Young, et al., J. Biol. Chem. 273,20877-20885 (1998).
Next it was determined if TR2 could repress the ER endogenous target gene expression. PR was chosen because it is well studied as an E2-ER target gene in T47D cells. Misrahi et al., Biochem. Biophys. Res. Commun. 143, 740-748 (1987). […] Cells were then used for RNA isolation (Northern blot analysis) and lysate protein extraction (Western blot analysis). For RNA analysis, total RNAs were isolated, and Northern blots were performed using [32P] labeled PR cDNA probes. The membrane was autoradiographed. For Protein Western blot analysis, cells lysates were prepared and PR proteins were visualized by radioimmunoblot. The membrane was autoradiographed to Phosphorimager and was quantitated by ImageQuant software.

Row | Molecule | Subcellular localization of unliganded AR on co-transfection (AR) | E2-induced PR expression at mRNA and protein levels (PR; T47D cells and MCF7 cells, Example 2) | Expression of endogenous PR mRNA (PR; T47D cells transfected with pCMV-TR2, 10 nM E2) | Endogenous PR expression (Western blot) (PR; T47D cells, similar in MCF7)
1 | B1 | moves into the nucleus | – | – | –
2 | B2 | – | repress | clearly repressed | repress
